Measurements from article PMC6341108, “Anti-LRP5/6 VHHs promote differentiation of Wnt-hypersensitive intestinal stem cells” (Nature Communications, 2019).
“And” between values parts separate entries of the source, which are not always exact repeats. Equal entries are not always repeated. Blank lines part the entries; values can stand above or below the molecule they belong to.

What was measured:
[1] = target: LRP6 P3E3P4E4 (Homo sapiens) (UniProt O75581); settings: cited from earlier work
[2] = target: LRP6 P1E1P2E2 (Homo sapiens) (UniProt O75581); settings: cited from earlier work
Chain of LRP6 P1E1P2E2 (Homo sapiens) (O75581 20-630): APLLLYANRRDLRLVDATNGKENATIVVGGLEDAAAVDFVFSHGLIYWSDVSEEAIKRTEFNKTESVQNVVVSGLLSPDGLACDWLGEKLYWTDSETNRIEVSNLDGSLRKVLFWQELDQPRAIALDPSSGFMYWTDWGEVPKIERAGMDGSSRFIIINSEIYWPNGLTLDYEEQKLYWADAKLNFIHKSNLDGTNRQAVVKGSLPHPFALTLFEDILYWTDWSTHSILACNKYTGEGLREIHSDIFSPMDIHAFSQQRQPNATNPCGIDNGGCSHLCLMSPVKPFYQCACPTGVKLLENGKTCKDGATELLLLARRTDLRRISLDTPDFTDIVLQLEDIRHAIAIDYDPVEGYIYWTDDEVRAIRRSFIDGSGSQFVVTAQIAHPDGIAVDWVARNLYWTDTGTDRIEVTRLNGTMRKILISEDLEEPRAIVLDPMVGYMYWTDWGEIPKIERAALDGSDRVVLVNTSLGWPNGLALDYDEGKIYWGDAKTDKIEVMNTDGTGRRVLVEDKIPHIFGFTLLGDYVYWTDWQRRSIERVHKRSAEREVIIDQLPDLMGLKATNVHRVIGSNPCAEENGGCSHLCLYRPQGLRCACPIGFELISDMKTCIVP

[3] = target: T1, human LRP6 β-propeller-EGF modules P3E3P4E4 (Homo sapiens); assay: quartz crystal microbalance (QCM); LRP6 P3E3P4E4 immobilised by amine coupling on an Attana LNB chip; VHH injected at four rising concentrations (single cycle kinetics); 22 °C, HBS-T, 25 µL/min; 1:1 fitting model; settings: both partners purified
T1 construct: Low-density lipoprotein receptor-related protein 6 (LRP6), human, domains P3E3P4E4; the methods say Uniprot residues 639-1244, the results say UNIPROT residues 629-1244; Expressed from pUPE107.03 with an N-terminal cystatin secretion signal; also called LRP6^P3E3P4E4; LRP6 P3E3P4E4; source: HEK293 GnTI- cells, transiently co-expressed with human MESD, secreted, purified (Ni-Sepharose excel, SEC …)
T1 chain: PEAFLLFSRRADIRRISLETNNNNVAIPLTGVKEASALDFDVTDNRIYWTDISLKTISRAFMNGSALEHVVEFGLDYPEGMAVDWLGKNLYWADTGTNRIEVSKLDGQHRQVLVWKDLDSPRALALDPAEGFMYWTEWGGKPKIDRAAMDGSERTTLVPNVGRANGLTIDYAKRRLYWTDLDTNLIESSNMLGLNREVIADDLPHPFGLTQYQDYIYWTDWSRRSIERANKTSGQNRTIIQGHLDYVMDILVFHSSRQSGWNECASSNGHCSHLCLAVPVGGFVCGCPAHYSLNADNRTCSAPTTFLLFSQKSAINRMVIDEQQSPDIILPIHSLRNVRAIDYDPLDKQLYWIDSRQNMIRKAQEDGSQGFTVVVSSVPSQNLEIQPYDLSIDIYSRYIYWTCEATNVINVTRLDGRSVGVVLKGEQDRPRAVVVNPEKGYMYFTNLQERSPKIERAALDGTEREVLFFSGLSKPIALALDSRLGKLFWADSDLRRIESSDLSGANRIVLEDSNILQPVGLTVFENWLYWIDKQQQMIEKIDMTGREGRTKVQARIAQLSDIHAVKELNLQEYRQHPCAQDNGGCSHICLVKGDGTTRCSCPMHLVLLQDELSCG

[4] = target: T2, human LRP6 β-propeller-EGF modules P3E3P4E4 (Homo sapiens); assay: ITC; 10 µM LRP6 P3E3P4E4 in the sample cell, 100 µM VHH injected, DPBS, 25 °C; triplicate; settings: both partners purified
T2 construct: low-density lipoprotein receptor-related protein 6 (LRP6), human, domains P3E3P4E4; Cloned with an N-terminal cystatin secretion signal; also called LRP6^P3E3P4E4; LRP6 P3E3P4E4; source: HEK293 GnTI- cells, transiently co-expressed with human MESD, secreted, purified (Ni-Sepharose excel, SEC)
T2 chain: T1 chain

[5] = target: T3, human LRP6 β-propeller-EGF modules P3E3P4E4 (Homo sapiens); assay: cell-based or functional assay
T3 chain: T1 chain

[6] = target: T3, human LRP6 β-propeller-EGF modules …; assay: ITC; 10 µM LRP6^P3E3P4E4 in the cell, 100 µM VHH injected, DPBS, 25 °C, triplicate; settings: both partners purified
[7] = target: T3, human LRP6 β-propeller-EGF modules …; assay: quartz crystal microbalance (QCM); LRP6^P3E3P4E4 immobilised by amine coupling on an Attana LNB chip; VHHs injected (0.03-0.25 µg/mL) in HBS-T, single-cycle kinetics, 22 °C, 1:1 fitting model; settings: both partners purified
[8] = target: T4, human LRP6 β-propeller-EGF modules P3E3P4E4 (human, UniProt O75581 639-1244); assay: ITC
T4 chain: T1 chain

Chain of LRP6 P3E3P4E4 (Homo sapiens) (O75581 631-1246): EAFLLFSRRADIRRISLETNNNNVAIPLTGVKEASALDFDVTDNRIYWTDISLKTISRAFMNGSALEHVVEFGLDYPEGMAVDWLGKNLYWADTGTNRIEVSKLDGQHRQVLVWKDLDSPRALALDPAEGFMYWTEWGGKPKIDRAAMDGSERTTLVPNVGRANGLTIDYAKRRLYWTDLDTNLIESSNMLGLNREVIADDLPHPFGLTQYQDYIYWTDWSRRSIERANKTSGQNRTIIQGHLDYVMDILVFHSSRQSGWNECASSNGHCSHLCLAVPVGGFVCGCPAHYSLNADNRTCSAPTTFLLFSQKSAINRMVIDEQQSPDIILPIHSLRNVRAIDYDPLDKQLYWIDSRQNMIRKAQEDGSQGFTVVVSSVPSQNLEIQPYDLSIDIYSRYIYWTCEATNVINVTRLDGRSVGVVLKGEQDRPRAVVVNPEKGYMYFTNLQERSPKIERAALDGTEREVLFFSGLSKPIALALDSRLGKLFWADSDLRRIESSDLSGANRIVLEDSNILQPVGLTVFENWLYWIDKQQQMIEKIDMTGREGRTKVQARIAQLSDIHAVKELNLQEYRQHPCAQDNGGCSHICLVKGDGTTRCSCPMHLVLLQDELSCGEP

Kd [3]: 0.4 nM
koff [3]: 0.00015 s⁻¹
kon [3]: 370000 M⁻¹ s⁻¹
B1: anti-LRP6 VHH L-P2-D07, C-terminal V5-FLAG3-His6-tagged (VHH)
VHH: EVQLQESGGGLVQAGGSLRLSCAASGRTFSIYTIGWFRQAPGKEREFVAEITWSGGSTYYADSVKGRFTISRDNAKNTVYLQMNSLKPEDTAVYYCAAITYTRGIYKYWGQGTQVTVSS
notes: also in the deposited structure of the complex with LRP6 P3E3P4E4; Selected by CIS display from a fully synthetic VHH library; also called L-P2-D07-V5-Flag3-His6; source: E. coli BL21 Gold, purified (IMAC, SEC Superdex 75); not shown: V5, C-terminal, kept; FLAG3, C-terminal, kept; His6, C-terminal, kept

Kd [3]: 0.8 nM
koff [3]: 0.00014 s⁻¹
kon [3]: 180000 M⁻¹ s⁻¹
B6: anti-LRP6 VHH L-P2-B10, C-terminal V5-FLAG3-His6-tagged (VHH)
VHH: EVQLQESGGCLVQAGGSLRLSCAASGSTFSTYTIGWFRQAPGKEREFVAAIHWDGGQTYYADSVKGRFTISRDNAKNTVYLQMNSLKPEDTAVYYCAARGRRYFDFTYSDVYDYWGQGTQVTVSS
notes: also in the deposited structure of the complex with LRP6 P3E3P4E4; Selected by CIS display from a fully synthetic VHH library; source: E. coli BL21 Gold, purified (IMAC, SEC Superdex 75); not shown: V5, C-terminal, kept; FLAG3, C-terminal, kept; His6, C-terminal, kept

The next lines start with the molecule.

Molecule: DKK1 DKK1_C (from UniProt O94907)
Kd [1]: 70 nM
Kd [2]: 70 nM

B2: anti-LRP6 VHH L-P2-D07 (VHH)
VHH: B1 VHH
notes: they are in the deposited structure of its complex with LRP6 P3E3P4E4 (PDB 6H15 or 6H16); Selected by CIS display from a fully synthetic VHH library; source: E. coli BL21, purified (IMAC, SEC); not shown: V5, C-terminal, kept; FLAG3, C-terminal, kept; His6, C-terminal, kept
Kd [4]: 30.3 nM and 35.7 nM and 29.4 nM
stoichiometry N [4]: 0.921 and 0.893 and 0.881

B3: anti-LRP6 VHH L-P2-D07 with C-terminal V5-FLAG3-His6-tag (VHH)
VHH: B1 VHH
notes: Selected by CIS display from a fully synthetic VHH library; also called anti-LRP6^P3E3P4E4 VHH; anti-LRP5/6^P3 VHH; source: E. coli BL21 (BL21-Gold), purified (IMAC, SEC Superdex 75); not shown: V5, C-terminal, kept; FLAG3, C-terminal, kept; His6, C-terminal, kept
IC50 of inhibition of cellular responses to Wnt3a (Wnt luciferase reporter, HEK293T); blocks Wnt3a with LRP6 [5]: 94 nM
IC50 of inhibition of cellular responses to the combination of Wnt3a and R-spondin1 (Wnt luciferase reporter, HEK293T); blocks Wnt3a with LRP6 [5]: 40 nM
Kd [6]: < 40 nM
stoichiometry N [6]: 1
koff [7]: ~0.0001 s⁻¹
kon [7]: ~100000 M⁻¹ s⁻¹

B4: anti-LRP6 VHH L-P2-H07, C-terminal V5-FLAG3-His6-tagged (VHH)
VHH: EVQLQESGGGLVQAGGSLRLSCAASGDIISSYRMGWFRQAPGKEREFVSDITPSIGHTYYADSVKGRFTISRDNAKNTVYLQMNSLKPEDTAVYYCRAVDRSYRYPYEYWGQGTQVTVSS
notes: Selected by CIS display from a fully synthetic VHH library; No structure of its complex was deposited; source: E. coli BL21 Gold, purified (IMAC, SEC Superdex 75); not shown: V5, C-terminal, kept; FLAG3, C-terminal, kept; His6, C-terminal, kept
Kd [8]: 17.5 nM
Kd [3]: 2.3 nM
koff [3]: 0.00018 s⁻¹
kon [3]: 81000 M⁻¹ s⁻¹

B5: anti-LRP6 VHH L-P2-B10 with C-terminal V5-FLAG3-His6-tag (VHH)
VHH: B6 VHH
notes: as for B3
IC50 of inhibition of cellular responses to Wnt3a (Wnt luciferase reporter, HEK293T); blocks Wnt3a with LRP6 [5]: 82 nM
IC50 of inhibition of cellular responses to the combination of Wnt3a and R-spondin1 (Wnt luciferase reporter, HEK293T); blocks Wnt3a with LRP6 [5]: 40 nM
Kd [8]: 12.8 nM
Kd [6]: < 40 nM
stoichiometry N [6]: 1
koff [7]: ~0.0001 s⁻¹
kon [7]: ~100000 M⁻¹ s⁻¹

B7: anti-LRP6 VHH L-P2-B10 (VHH)
VHH: B6 VHH
notes: as for B2
Kd [4]: 14.5 nM and 11.9 nM and 12.2 nM
stoichiometry N [4]: 1.09 and 1.08 and 1.15
